According to patent US20240150465A1 (Chugai, published 2024):

T1: recombinant human DLL3 (human, UniProt Q9NYJ7 27-492)
T1 sequence: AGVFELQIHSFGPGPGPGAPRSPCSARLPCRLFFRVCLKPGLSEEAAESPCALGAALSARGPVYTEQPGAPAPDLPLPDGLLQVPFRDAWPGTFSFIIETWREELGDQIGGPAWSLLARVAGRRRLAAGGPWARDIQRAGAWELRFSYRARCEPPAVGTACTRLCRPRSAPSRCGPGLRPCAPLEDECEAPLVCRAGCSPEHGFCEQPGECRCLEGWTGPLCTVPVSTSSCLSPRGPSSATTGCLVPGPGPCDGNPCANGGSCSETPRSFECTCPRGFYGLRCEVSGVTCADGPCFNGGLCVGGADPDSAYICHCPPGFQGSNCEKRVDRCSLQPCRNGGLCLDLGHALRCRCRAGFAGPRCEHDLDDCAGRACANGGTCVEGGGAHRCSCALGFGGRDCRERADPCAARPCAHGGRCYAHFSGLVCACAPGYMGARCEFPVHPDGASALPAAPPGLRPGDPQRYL

T2: Cynomolgus DLL3 ECD with Myc-tag on N-terminus and His-tag on C-terminus (cynomolgus)
T2 construct: also called Myc-cynoDLL3-His; Cyno DLL3
T2 chain: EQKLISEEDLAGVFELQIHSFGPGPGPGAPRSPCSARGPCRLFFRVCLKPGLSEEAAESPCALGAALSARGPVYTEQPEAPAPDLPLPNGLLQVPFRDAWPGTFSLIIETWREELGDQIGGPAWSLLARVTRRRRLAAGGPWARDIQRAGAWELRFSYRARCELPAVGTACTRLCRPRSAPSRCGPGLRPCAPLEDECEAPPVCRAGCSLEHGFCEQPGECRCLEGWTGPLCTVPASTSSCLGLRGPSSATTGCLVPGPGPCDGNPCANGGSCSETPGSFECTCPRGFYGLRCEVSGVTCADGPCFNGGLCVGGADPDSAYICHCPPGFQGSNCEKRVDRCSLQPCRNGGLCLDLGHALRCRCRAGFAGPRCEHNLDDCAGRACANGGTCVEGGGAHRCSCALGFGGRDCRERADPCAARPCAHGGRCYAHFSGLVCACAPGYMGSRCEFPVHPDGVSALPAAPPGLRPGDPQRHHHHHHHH


Legend:
recombinant human DLL3 = molecular target: T1, recombinant human DLL3; experiment: SPR Biacore 8K, 37 C, pH 7.4; bispecific captured on anti-human Fc, DLL3 as analyte, 1:1 model
Experimental: (§1) Binding affinity of anti-DLL3 arm in the anti-DLL3/CD3 antibodies to human or cynomolgus DLL3 at pH 7.4 were assessed at 37 degrees C. using Biacore 8K instrument (GE Healthcare). Anti-human Fc (GE Healthcare) was immobilized onto all flow cells of a CM4 sensor chip using amine coupling kit (GE Healthcare). The bispecific antibodies were captured onto the anti-Fc sensor surfaces, and then recombinant human or cynomolgus DLL3 was injected over the flow cell. All antibodies and analytes were prepared in ACES pH 7.4 containing 20 mM ACES, 150 mM NaCl, 0.05% Tween 20, 0.005% NaN₃. Sensor surface was regenerated each cycle with 3M MgCl₂.

[1] = molecular target: T2, Cynomolgus DLL3 ECD with Myc-tag on …; experiment: as above
Experimental: as §1

[2] = molecular target: recombinant human CD3eg protein (CD3 epsilon-gamma, heterodimer of CD3 epsilon and CD3 gamma) (human, UniProt P07766 23-126; P09693 23-116); experiment: SPR Biacore 8K, 37 C, pH 7.4; bispecific captured on anti-human Fc, human CD3eg as analyte, 1:1 model
Experimental: as §1, with “of the anti-CD3” for “of anti-DLL3”, “arm of” for “arm in”, “anti-DLL3/CD3 bispecific” for “anti-DLL3/CD3”, “to CD3” for “to human or cynomolgus DLL3”, “7.4 was” for “7.4 were”, “human CD3eg proteins (CD3 epsilon-gamma, heterodimer of CD3 epsilon and CD3 gamma)” for “human or cynomolgus DLL3”

Chain of recombinant human CD3eg protein (CD3 epsilon-gamma, heterodimer of CD3 epsilon and CD3 gamma) (P07766 23-126 limits assumed, chain 1 of 2): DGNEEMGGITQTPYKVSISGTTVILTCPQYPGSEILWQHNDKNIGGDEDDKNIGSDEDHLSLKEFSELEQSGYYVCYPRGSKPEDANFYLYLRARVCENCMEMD
Chain of recombinant human CD3eg protein (CD3 epsilon-gamma, heterodimer of CD3 epsilon and CD3 gamma) (P09693 23-116 limits assumed, chain 2 of 2): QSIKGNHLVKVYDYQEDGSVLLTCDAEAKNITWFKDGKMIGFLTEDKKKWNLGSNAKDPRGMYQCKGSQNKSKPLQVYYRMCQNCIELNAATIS

| Kd (recombinant human DLL3) | koff (recombinant human DLL3) | kon (recombinant human DLL3) | Kd [1] | koff [1] | kon [1] | Kd [2] | koff [2] | kon [2] | Binder |
| --- | --- | --- | --- | --- | --- | --- | --- | --- | --- |
| 0.0353 nM | 8.72e-05 s⁻¹ | 2.47e+06 M⁻¹ s⁻¹ | 0.0199 nM | 4.96e-05 s⁻¹ | 2.49e+06 M⁻¹ s⁻¹ | – | – | – | DLA0316/TR01 (bispecific antibody, V domains shown, IgG-type anti-DLL3/CD3 bispecific made by Fab arm exchange) VH 1: QEQLVESGGGLVQPGGSLKLSCKVSGFDFSNYGVSWVRQAPGKGLEWIGYIDPAFGRTYYASWVNGRFTISSHNAQNTLYLQLNSLTAADTATYFCVRVALVVAGVAYYGMDVWGPGTLVTVSS VL 1: ADVVMTQTPASVEAAVGGTVTINCQASQNIYSYLSWYQQKPGQPPKLLIYRTSTLASGVPSRFKGSGSGTQFTLTISDLECADAATYYCQSYYYSSGSSYGAFAFGGGTEVVVK VH 2: QVQLVESGGGVVQPGGSLRLSCAASGFTFSNAWMHWVRQAPGKGLEWVAQIKDKSQNYATYVAESVKGRFTISRADSKNSIYLQMNSLKTEDTAVYYCRYVHYAAGYGVDIWGQGTTVTVSS VL 2: DIVMTQSPLSLPVTPGEPASISCRSSQPLVHSNRNTYLHWYQQKPGQAPRLLIYKVSNRFSGVPDRFSGSGSGTDFTLKISRVEAEDVGVYYCGQGTQVPYTFGQGTKLEIK |
| 0.0639 nM | 0.000247 s⁻¹ | 3.87e+06 M⁻¹ s⁻¹ | 0.0621 nM | 0.000238 s⁻¹ | 3.83e+06 M⁻¹ s⁻¹ | – | – | – | DLA0841/TR01 (bispecific antibody, V domains shown, IgG-type anti-DLL3/CD3 bispecific made by Fab arm exchange) VH 1: QEQLVESGGGLVQPEGSLTLTCTASGFSFSSSYDMCWVRQAPGKGPEWIACIYTGDGSTDYASWAKGRFTVSKASSTTVTLQMTSLAVADTATYFCARNSGYGYFGLWGPGTLVTVSS VL 1: QVLTQTPSPVSAAVGGTVTISCQSTESVYGSDWLSWYQQKPGQPPKVLIYQASNLEIGVPSRFKGSGSGTQFTLTISGAQCDDAATYYCQGYYSGYIYAFGGGTEVVVK VH 2: QVQLVESGGGVVQPGGSLRLSCAASGFTFSNAWMHWVRQAPGKGLEWVAQIKDKSQNYATYVAESVKGRFTISRADSKNSIYLQMNSLKTEDTAVYYCRYVHYAAGYGVDIWGQGTTVTVSS VL 2: DIVMTQSPLSLPVTPGEPASISCRSSQPLVHSNRNTYLHWYQQKPGQAPRLLIYKVSNRFSGVPDRFSGSGSGTDFTLKISRVEAEDVGVYYCGQGTQVPYTFGQGTKLEIK |
| – | – | – | – | – | – | 7.55 nM | 0.000744 s⁻¹ | 98600 M⁻¹ s⁻¹ | D30316AE03/AN121 (bispecific antibody, V domains shown, IgG-type anti-DLL3/CD3 bispecific made by Fab arm exchange) VH 1: EVQLVESGGGLVQPGGSLRLSCAASGFTFSNYGVSWVRQAPGQGLEWMGYIDIAFGRTYYASWVTGRITINPDTSKNQFSLQLNSVTPEDTAVYYCARVALVVAGVAYYGMDVWGQGTLVTVSS VL 1: DIVMTQSPDSLAVSLGERATINCQASQNIYSYLSWYQQKPGKAPKLLIYRTSTLASGVPDRFSGSGSGTDFTLKISRVEAEDVGVYYCQSYYYSSGSSYGAFAFGQGTKVEIK VH 2: QVQLVESGGGLVQPGRSLRLSCAASGFTFSNAWMHWVRQAPGKGLEWVAQIKDRANSYNTYYAESVKGRFTISRDDSKNSIYLQMNSLKTEDTAVYYCRYVHYTTYAGSSFSYGVDAWGQGTTVTVSS VL 2: DIVMTQSPLSLPVTPGEPASISCRSSQPLVHSNRNTYLHWYQQKPGQAPRLLIYKVSNRFSGVPDRFSGSGSGTDFTLKISRVEAEDVGVYYCGQGTQVPYTFGQGTKLEIK |
| 0.0872 nM | 0.000215 s⁻¹ | 2.47e+06 M⁻¹ s⁻¹ | 0.0737 nM | 0.000191 s⁻¹ | 2.59e+06 M⁻¹ s⁻¹ | – | – | – | D30841AE08/TR01 (bispecific antibody, V domains shown, IgG-type anti-DLL3/CD3 bispecific made by Fab arm exchange) VH 1: QVTLRESGPALVKPTQTLTLTCTFSGFSLSSSYDMGWVRQAPGQGLEWMGTIYTGDYSTDYASWAKGRVTISVDTSKNQFSLKLSSVTAADTAVYYCARHTGYGYFGLWGQGTLVTVSS VL 1: DIQLTQSPSFLSASVGDRVTITCQSTESVYGSDWLSWYQQKPGQPPKLLIYQASNLEIGVPSRFSGSGSGTDFTLTINSLEAEDAATYYCQGYYSGYIYAFGGGTKVEIK VH 2: QVQLVESGGGVVQPGGSLRLSCAASGFTFSNAWMHWVRQAPGKGLEWVAQIKDKSQNYATYVAESVKGRFTISRADSKNSIYLQMNSLKTEDTAVYYCRYVHYAAGYGVDIWGQGTTVTVSS VL 2: DIVMTQSPLSLPVTPGEPASISCRSSQPLVHSNRNTYLHWYQQKPGQAPRLLIYKVSNRFSGVPDRFSGSGSGTDFTLKISRVEAEDVGVYYCGQGTQVPYTFGQGTKLEIK |
| 0.172 nM | 0.000325 s⁻¹ | 1.88e+06 M⁻¹ s⁻¹ | 0.142 nM | 0.000265 s⁻¹ | 1.86e+06 M⁻¹ s⁻¹ | – | – | – | D30841AE11/TR01 (bispecific antibody, V domains shown, IgG-type anti-DLL3/CD3 bispecific made by Fab arm exchange) VH 1: QVTLRESGPALVKPTQTLTLTCTFSGFSLSSSYDMGWVRQAPGQGLEWMGTIYTGDYSTDYASWAKGRVTISVDTSKNQFSLKLSSVTAADTAVYYCARHTGYGYFGLWGQGTLVTVSS VL 1: DIQLTQSPSFLSASVGDRVTITCQSTESVYGSDWLSWYQQKPGQPPKLLIYQASNLEIGVPSRFSGSGSGTDFTLTINSLEAEDAATYYCQGYYSGYSYAFGGGTKVEIK VH 2: QVQLVESGGGVVQPGGSLRLSCAASGFTFSNAWMHWVRQAPGKGLEWVAQIKDKSQNYATYVAESVKGRFTISRADSKNSIYLQMNSLKTEDTAVYYCRYVHYAAGYGVDIWGQGTTVTVSS VL 2: DIVMTQSPLSLPVTPGEPASISCRSSQPLVHSNRNTYLHWYQQKPGQAPRLLIYKVSNRFSGVPDRFSGSGSGTDFTLKISRVEAEDVGVYYCGQGTQVPYTFGQGTKLEIK |
| – | – | – | – | – | – | 30.7 nM | 0.00743 s⁻¹ | 242000 M⁻¹ s⁻¹ | D30316AE03/AN395 (bispecific antibody, V domains shown, IgG-type anti-DLL3/CD3 bispecific made by Fab arm exchange) VH 1: EVQLVESGGGLVQPGGSLRLSCAASGFTFSNYGVSWVRQAPGQGLEWMGYIDIAFGRTYYASWVTGRITINPDTSKNQFSLQLNSVTPEDTAVYYCARVALVVAGVAYYGMDVWGQGTLVTVSS VL 1: DIVMTQSPDSLAVSLGERATINCQASQNIYSYLSWYQQKPGKAPKLLIYRTSTLASGVPDRFSGSGSGTDFTLKISRVEAEDVGVYYCQSYYYSSGSSYGAFAFGQGTKVEIK VH 2: QVQLVESGGGLVQPGRSLRLSCAASGFTFSNAWMHWVRQAPGKGLEWVAQIKDKANGYNAYYAPSVKGRFTISRDDSKNSIYLQMNSLKTEDTAVYYCRYVHYTTFGFGLSYGGVDAWGQGTTVTVSS VL 2: DIVMTQSPLSLPVTPGEPASISCRSSQPLVHSNRNTYLHWYQQKPGQAPRLLIYKVSNRFSGVPDRFSGSGSGTDFTLKISRVEAEDVGVYYCGQGTQVPYTFGQGTKLEIK |
| – | – | – | – | – | – | 37.3 nM | 0.00266 s⁻¹ | 71400 M⁻¹ s⁻¹ | D30316AE03/AN104 (bispecific antibody, V domains shown, IgG-type anti-DLL3/CD3 bispecific made by Fab arm exchange) VH 1: EVQLVESGGGLVQPGGSLRLSCAASGFTFSNYGVSWVRQAPGQGLEWMGYIDIAFGRTYYASWVTGRITINPDTSKNQFSLQLNSVTPEDTAVYYCARVALVVAGVAYYGMDVWGQGTLVTVSS VL 1: DIVMTQSPDSLAVSLGERATINCQASQNIYSYLSWYQQKPGKAPKLLIYRTSTLASGVPDRFSGSGSGTDFTLKISRVEAEDVGVYYCQSYYYSSGSSYGAFAFGQGTKVEIK VH 2: QVQLVESGGGLVQPGRSLRLSCAASGFTFSNAWMHWVRQAPGKGLEWVAQIKDRQNGYNTYYAESVKGRFTISRDDSKNSIYLQMNSLKTEDTAVYYCRYVHYTTTYGSYYQFGVDAWGQGTTVTVSS VL 2: DIVMTQSPLSLPVTPGEPASISCRSSQPLVHSNRNTYLHWYQQKPGQAPRLLIYKVSNRFSGVPDRFSGSGSGTDFTLKISRVEAEDVGVYYCGQGTQVPYTFGQGTKLEIK |
| – | – | – | – | – | – | 11 nM | 0.0016 s⁻¹ | 145000 M⁻¹ s⁻¹ | D30316AE03/AN119 (bispecific antibody, V domains shown, IgG-type anti-DLL3/CD3 bispecific made by Fab arm exchange) VH 1: EVQLVESGGGLVQPGGSLRLSCAASGFTFSNYGVSWVRQAPGQGLEWMGYIDIAFGRTYYASWVTGRITINPDTSKNQFSLQLNSVTPEDTAVYYCARVALVVAGVAYYGMDVWGQGTLVTVSS VL 1: DIVMTQSPDSLAVSLGERATINCQASQNIYSYLSWYQQKPGKAPKLLIYRTSTLASGVPDRFSGSGSGTDFTLKISRVEAEDVGVYYCQSYYYSSGSSYGAFAFGQGTKVEIK VH 2: QVQLVESGGGLVQPGRSLRLSCAASGFTFSNAWMHWVRQAPGKGLEWVAQIKDKQNSYAAYYAESVKGRFTISRDDSKNSIYLQMNSLKTEDTAVYYCRYVHYTTYSGGFFSYGVDAWGQGTTVTVSS VL 2: DIVMTQSPLSLPVTPGEPASISCRSSQPLVHSNRNTYLHWYQQKPGQAPRLLIYKVSNRFSGVPDRFSGSGSGTDFTLKISRVEAEDVGVYYCGQGTQVPYTFGQGTKLEIK |
